According to the supplement of paper PMC7877785:
± gives the uncertainty stated by the source.

Assay: self-splicing fitness, log relative to wild type (ln ratio); higher = more splicing; Tetrahymena group I intron in knt gene, E. coli kanamycin selection, DiMSum; sequences stand for … in CUCUCU…GGAGGGAAAAGUUAUCAGGCAUGCACCUGGUAGCUAGUCUUUAAACCAAUAGAUUGCAUCGGUUUAAAAGGCAAGACCGUCAAAUUGCGGGAAAGGGGUCAACAGCCGUUCAGUACCAAGUCUCAGGGGAAACUUUGAGAUGGCCUUGCAAAGGGUAUGGUAAUAAGCUGACGGACAUGGUCCUAACCACGCAGCCAAGUCCUAAGUCAACAGAUCUUCUGUUGAUAUGGAUGCAGUUCACAGACUAAAUGUCGGUCGGGGAAGAUGUAUUCUUCUCAUAAGAUAUAGUCGGACCUCUCCUUAAUGGGAGCUAGCGGAUGAAGUGAUGCAACACUGGAGCCGCUGGGAACUAAUUUGUAUGCGAAAGUAUAUUGAUUAGUUUUGGAGUACUCGUGGUCG
Summary of the method: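 The eight P1ex-region nucleotides of an intron in the knt kanamycin-resistance gene on pET-22b(+) were all randomised and the library put into E. coli BL21(DE3). Six replicate transformations were grown overnight at 37°C or 30°C on LB agar with or without 25 μg/mL kanamycin, together with 100 μg/mL carbenicillin, 50 μM IPTG and 0.2% rhamnose. Colonies were pooled and amplicon-sequenced on an Illumina HiSeq 2500. Fitness from DiMSum is the error-weighted combination of wild-type-normalised replicate fold changes, kanamycin over none.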

Row | Sequence | self-splicing fitness (ln) (30 °C) | self-splicing fitness (ln) (37 °C)
1 | AUCCAGCAAUAUUACGGAGU | -3.02 ± 0.098 | -1.99 ± 0.11
2 | ACAGAGCAAUAUUACGUACU | -2.96 ± 0.27 | -2.14 ± 0.21
3 | UAAUAGCAAUAUUACGCUCG | 0.447 ± 0.16 | 0.265 ± 0.18
4 | AAGUAGCAAUAUUACGUAUU | -1.97 ± 0.11 | -1.07 ± 0.14
5 | AACAAGCAAUAUUACGUGGG | -2.93 ± 0.12 | -2.95 ± 0.13
6 | GCGUAGCAAUAUUACGGCAG | -3.83 ± 0.28 | -2.13 ± 0.39
7 | CUUAAGCAAUAUUACGCUAC | -4.22 ± 0.42 | -2.34 ± 0.36
8 | UCCUAGCAAUAUUACGCGUA | -2.95 ± 0.23 | -1.53 ± 0.14
9 | CUUUAGCAAUAUUACGGGCC | -3.32 ± 0.16 | -2.64 ± 0.21
10 | AUACAGCAAUAUUACGCAUU | -1.85 ± 0.088 | -1.4 ± 0.11
11 | CCUCAGCAAUAUUACGUGGA | -3.84 ± 0.18 | -3.02 ± 0.2
12 | CUAAAGCAAUAUUACGCUGC | -3.7 ± 0.47 | -2.53 ± 0.42
13 | CAAGAGCAAUAUUACGCGAC | -3.73 ± 0.23 | -1.93 ± 0.13
14 | AAGAAGCAAUAUUACGGGAU | -3.22 ± 0.22 | -1.77 ± 0.18
15 | CAGUAGCAAUAUUACGCUGC |  | -1.92 ± 0.43
16 | CACUAGCAAUAUUACGUCUC | -4.18 ± 0.26 | -2.43 ± 0.2
17 | UCCUAGCAAUAUUACGGAUC | -3.39 ± 0.23 | -2.53 ± 0.26
18 | CAGUAGCAAUAUUACGCACA | -1.88 ± 0.14 | -0.579 ± 0.18
19 | CGCUAGCAAUAUUACGAAUG | -1.33 ± 0.17 | -0.192 ± 0.16
20 | GUCCAGCAAUAUUACGAUAC | -0.876 ± 0.082 | -0.0588 ± 0.099
21 | GGGUAGCAAUAUUACGUCUC | -0.431 ± 0.28 | 0.223 ± 0.43
22 | UCGCAGCAAUAUUACGCGUG | -3.34 ± 0.15 | -1.44 ± 0.14
23 | GCAGAGCAAUAUUACGCACG | -4.51 ± 0.42 | -2.05 ± 0.23
24 | UCAGAGCAAUAUUACGUUGC |  | -1.48 ± 0.32
25 | UGUAAGCAAUAUUACGCUGA | -3.08 ± 0.26 | -1.33 ± 0.16
26 | CGUGAGCAAUAUUACGUUGA | -2.89 ± 0.3 | -2.94 ± 0.43

Row | Sequence | self-splicing fitness (ln) (30 °C) | self-splicing fitness (ln) (37 °C)
27 | UUCUAGCAAUAUUACGGAUC | -2.3 ± 0.21 | -0.989 ± 0.31
28 | UUAUAGCAAUAUUACGCCCA | -1.57 ± 0.22 | -0.787 ± 0.26
29 | AUUAAGCAAUAUUACGACCC | -1.2 ± 0.35 | 
30 | ACUAAGCAAUAUUACGAUAG | -1.34 ± 0.076 | -0.427 ± 0.096
31 | GCGCAGCAAUAUUACGAUUU | -1.07 ± 0.094 | 0.585 ± 0.11
32 | AGACAGCAAUAUUACGAUAG | -3.16 ± 0.2 | -1.56 ± 0.26
33 | UAAUAGCAAUAUUACGUAGC | -2.63 ± 0.35 | -2.19 ± 0.26
34 | UACAAGCAAUAUUACGUGGU | -3.29 ± 0.14 | -3.27 ± 0.17
35 | UUUUAGCAAUAUUACGCUUU | -3.71 ± 0.28 | -1.23 ± 0.16
36 | AACUAGCAAUAUUACGCUCA | -0.21 ± 0.1 | 0.239 ± 0.14
37 | CCAGAGCAAUAUUACGAAUC | -3.76 ± 0.26 | -2.74 ± 0.27
38 | GACGAGCAAUAUUACGGCAU | -1.4 ± 0.14 | -0.955 ± 0.17
39 | CGUAAGCAAUAUUACGGCGC | -2.21 ± 0.26 | -2.2 ± 0.42
40 | UACUAGCAAUAUUACGUGCA | -1.01 ± 0.073 | 0.166 ± 0.09
41 | AACAAGCAAUAUUACGACGA | -1.15 ± 0.07 | -0.468 ± 0.074
42 | GGUAAGCAAUAUUACGGCGG | -2.55 ± 0.24 | -0.84 ± 0.18
43 | GCUGAGCAAUAUUACGAUCC | -1.34 ± 0.15 | 0.743 ± 0.24
44 | AGAAAGCAAUAUUACGAAAC | -3.2 ± 0.25 | -2.93 ± 0.24
45 | AAGAAGCAAUAUUACGGUCG | -0.736 ± 0.073 | -0.121 ± 0.1
46 | UUAUAGCAAUAUUACGGCCA | -1.18 ± 0.31 | -0.579 ± 0.33
47 | UCACAGCAAUAUUACGUUCU | -3.63 ± 0.22 | -1.5 ± 0.13
48 | AGCAAGCAAUAUUACGUGGU | -2.79 ± 0.12 | -3.13 ± 0.18
49 | AAGGAGCAAUAUUACGGAGU | -3.24 ± 0.22 | -1.33 ± 0.17
50 | UCAGAGCAAUAUUACGGUGC | -3.88 ± 0.35 | -0.485 ± 0.15
51 | ACUUAGCAAUAUUACGGAAG | -2.44 ± 0.13 | -1.25 ± 0.14
52 | AUCUAGCAAUAUUACGCCGG |  | -1.25 ± 0.34

Row | Sequence | self-splicing fitness (ln) (30 °C) | self-splicing fitness (ln) (37 °C)
53 | GCACAGCAAUAUUACGCUAG | -1.9 ± 0.082 | -1.18 ± 0.078
54 | GUAAAGCAAUAUUACGCAAU | -0.316 ± 0.098 | -0.564 ± 0.16
55 | UGUGAGCAAUAUUACGUCGG | -2.11 ± 0.2 | -1.35 ± 0.29
56 | ACGGAGCAAUAUUACGCCAA | -3.46 ± 0.33 | -3.34 ± 0.47
57 | GCAUAGCAAUAUUACGGAGU | -3.52 ± 0.14 | -1.86 ± 0.11
58 | GUAAAGCAAUAUUACGAUCC | -0.0218 ± 0.18 | 0.363 ± 0.29
59 | AGCAAGCAAUAUUACGUAAU | -1.99 ± 0.1 | -1.27 ± 0.12
60 | CCUAAGCAAUAUUACGUUGU | -3.37 ± 0.16 | -2.15 ± 0.15
61 | UCGUAGCAAUAUUACGCAAC |  | -2.42 ± 0.48
62 | AGAUAGCAAUAUUACGCUGA | -1.79 ± 0.14 | -0.681 ± 0.17
63 | GAACAGCAAUAUUACGUAAC | -1.12 ± 0.082 | -0.127 ± 0.1
64 | UCACAGCAAUAUUACGGGUG | -2.37 ± 0.09 | -1.67 ± 0.083
65 | GCCUAGCAAUAUUACGCGGU | -4.03 ± 0.28 | -3 ± 0.26
66 | UUCUAGCAAUAUUACGAACG | -3.61 ± 0.36 | -1.15 ± 0.27
67 | AGCAAGCAAUAUUACGACCA | -0.697 ± 0.09 | -0.178 ± 0.12
68 | CAGUAGCAAUAUUACGCAAG | -1.07 ± 0.12 | -0.553 ± 0.17
69 | CGUAAGCAAUAUUACGCGUU | -3.69 ± 0.36 | -2.31 ± 0.32
70 | GGAAAGCAAUAUUACGUCGU | -0.732 ± 0.093 | -0.254 ± 0.12
71 | CAGUAGCAAUAUUACGGGAU | -4.35 ± 0.31 | -3.18 ± 0.16
72 | UCGUAGCAAUAUUACGGGUG | -1.66 ± 0.11 | -2.66 ± 0.14
73 | UUACAGCAAUAUUACGGGAA | -1.78 ± 0.086 | -0.461 ± 0.084
74 | UUUUAGCAAUAUUACGUGUG | -2.29 ± 0.16 | -1.17 ± 0.15
75 | AUACAGCAAUAUUACGUACC | -0.828 ± 0.11 | -0.283 ± 0.15
76 | AAUGAGCAAUAUUACGCUUA | -1.94 ± 0.14 | -0.919 ± 0.12
